Experimental data from IntAct's records for PubMed 19088199.

B1: Indoleamine 2,3-dioxygenase 1 (Mus musculus), P28776 (parent)
chain: MALSKISPTEGSRRILEDHHIDEDVGFALPHPLVELPDAYSPWVLVARNLPVLIENGQLREEVEKLPTLSTDGLRGHRLQRLAHLALGYITMAYVWNRGDDDVRKVLPRNIAVPYCELSEKLGLPPILSYADCVLANWKKKDPNGPMTYENMDILFSFPGGDCDKGFFLVSLLVEIAASPAIKAIPTVSSAVERQDLKALEKALHDIATSLEKAKEIFKRMRDFVDPDTFFHVLRIYLSGWKCSSKLPEGLLYEGVWDTPKMFSGGSAGQSSIFQSLDVLLGIKHEAGKESPAEFLQEMREYMPPAHRNFLFFLESAPPVREFVISRHNEDLTKAYNECVNGLVSVRKFHLAIVDTYIMKPSKKKPTDGDKSEEPSNVESRGTGGTNPMTFLRSVKDTTEKALLSWP

Variants of: B1
Details: with socs3_mouse Socs3, O35718
Sequence of socs3_mouse Socs3, O35718 (O35718 whole entry): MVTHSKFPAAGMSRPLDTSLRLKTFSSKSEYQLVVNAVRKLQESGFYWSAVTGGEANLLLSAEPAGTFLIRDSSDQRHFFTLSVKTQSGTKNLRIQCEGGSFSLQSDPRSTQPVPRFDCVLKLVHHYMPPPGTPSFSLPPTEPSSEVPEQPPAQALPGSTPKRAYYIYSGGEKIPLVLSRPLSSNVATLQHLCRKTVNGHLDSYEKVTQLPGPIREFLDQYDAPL

effect of a mutation on the interaction	Variant
disrupting interaction	Y115F;Y253F
